Patent US20120316071A1 (published 2012)

T1: rHuman Erythropoietin R/Fc Chimera, CF (R&D Systems Cat#963-ER) (human, UniProt P19235 25-250)
T1 construct: Bought recombinant Fc chimera; also called EPO R; EPO R/Fc; not shown: Fc of the bought R&D Systems chimera
T1 sequence (looked up): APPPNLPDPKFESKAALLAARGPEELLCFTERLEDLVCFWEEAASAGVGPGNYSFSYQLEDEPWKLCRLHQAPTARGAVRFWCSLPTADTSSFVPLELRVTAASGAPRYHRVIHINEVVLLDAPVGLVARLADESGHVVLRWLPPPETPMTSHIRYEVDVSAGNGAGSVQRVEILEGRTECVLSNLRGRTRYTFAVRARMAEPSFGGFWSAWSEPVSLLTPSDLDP

T2: rHuman Erythropoietin R/Fc Chimera, CF (R&D Systems Cat#963-ER) (human, UniProt P19235 25-250)
T2 construct: Bought reagent; also called EPO R; Epo R/Fc
T2 sequence (looked up): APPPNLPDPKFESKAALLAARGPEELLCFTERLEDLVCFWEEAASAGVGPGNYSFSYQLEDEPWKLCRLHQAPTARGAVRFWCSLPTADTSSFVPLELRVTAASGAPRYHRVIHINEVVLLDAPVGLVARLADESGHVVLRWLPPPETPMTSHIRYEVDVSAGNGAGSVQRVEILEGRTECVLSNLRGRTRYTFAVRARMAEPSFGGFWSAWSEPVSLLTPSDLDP


Key:
[1] = target: T1, rHuman Erythropoietin R/Fc Chimera, CF …; experiment: ECL Multispot (MSD), antigen spotted on plate, Fab 0.01 uM;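 note: electrochemiluminescence of each antigen spot divided by the blank of the same well, with a value of 4 or above scoring the Fab as a binding hit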
[2] = target: T3, rHuman IGF-1 sR, CF (R&D Systems Cat#391-GR) (human, UniProt P08069 31-932); experiment: as above
T3 construct: Bought recombinant soluble receptor; also called insulin-like growth factor-1 soluble receptor

[3] = target: T4, rHuman Notch-1/Fc Chimera, CF (R&D Systems Cat#3647-TK) (human, UniProt P46531 19-526); experiment: as above
T4 construct: Bought recombinant Fc chimera; not shown: Fc of the bought R&D Systems chimera

[4] = target: T5, rHuman CD44/Fc Chimera, CF (R&D Systems Cat#3660-CD) (human, UniProt P16070 21-220); experiment: as above
T5 construct: Bought recombinant Fc chimera; not shown: Fc of the bought R&D Systems chimera

[5] = target: T6, rHuman ErbB2/Fc Chimera, CF (R&D Systems Cat#1129-ER) (human, UniProt P04626 23-652); experiment: as above
T6 construct: Bought recombinant Fc chimera; not shown: Fc of the bought R&D Systems chimera

[6] = target: T7, rHuman P-Cadherin/Fc Chimera, CF (R&D Systems Cat#861-PC) (human, UniProt P22223 108-654); experiment: as above
T7 construct: Bought recombinant Fc chimera; not shown: Fc of the bought R&D Systems chimera

[7] = target: T8, Recombinant Human DLL4 (R&D Systems Cat#1506-D4/CF) (human, UniProt Q9NR61 27-524); experiment: as above
T8 construct: Bought recombinant protein; also called delta-like protein 4; rHuman DLL4

[8] = target: T9, rHuman HGF R/c-MET/Fc Chimera, CF (R&D Systems Cat#358-MT/CF) (human, UniProt P08581 25-932); experiment: as above
T9 construct: Bought recombinant Fc chimera; also called HGF R/Fc; not shown: Fc of the bought R&D Systems chimera

[9] = target: T10, rHuman EGF R/Fc Chimera, CF (R&D Systems Cat#344-ER) (human, UniProt P00533 25-645); experiment: as above
T10 construct: Bought recombinant Fc chimera; not shown: Fc of the bought R&D Systems chimera

[10] = target: T1, rHuman Erythropoietin R/Fc Chimera, CF …; experiment: ECL Multispot (MSD), antigen spotted on plate, Fab 0.1 uM;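 note: ratio compares each antigen's electrochemiluminescence to the blank within the same well, with a ratio of at least 4 counted as a binding Fab hit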
[11] = target: T3, rHuman IGF-1 sR, CF (R&D Systems …); experiment: as above
[12] = target: T4, rHuman Notch-1/Fc Chimera, CF (R&D …); experiment: as above
[13] = target: T5, rHuman CD44/Fc Chimera, CF (R&D Systems …); experiment: as above
[14] = target: T6, rHuman ErbB2/Fc Chimera, CF (R&D …); experiment: as above
[15] = target: T7, rHuman P-Cadherin/Fc Chimera, CF (R&D …); experiment: as above
[16] = target: T8, Recombinant Human DLL4 (R&D Systems …); experiment: as above
[17] = target: T9, rHuman HGF R/c-MET/Fc Chimera, CF (R&D …); experiment: as above
[18] = target: T10, rHuman EGF R/Fc Chimera, CF (R&D …); experiment: as above
[19] = target: T11, rHuman P-Cadherin/Fc Chimera, CF (R&D Systems Cat#861-PC) (human, UniProt P22223 108-654); experiment: ECL Multispot (MSD) assay; antigen spotted on plate, Fab in solution;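 note: fab bound 1 h at 20 °C, detected by TAG-labelled antibody electrochemiluminescence, signal relative to each well's blank, ratio of 4 or more marks a hit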
T11 construct: Bought reagent

[20] = target: T12, rHuman HGF R/c-MET/Fc Chimera, CF (R&D Systems Cat#358-MT/CF) (human, UniProt P08581 25-932); experiment: as above
T12 construct: Bought reagent; also called HGF R/Fc; hepatocyte growth factor receptor

[21] = target: T2, rHuman Erythropoietin R/Fc Chimera, CF …; experiment: as above
[22] = target: T13, rHuman IGF-1 sR, CF (R&D Systems Cat#391-GR) (human, UniProt P08069 31-932); experiment: as above
T13 construct: Bought soluble receptor; the column head 'IGF-1' means IGF-1 sR; also called insulin-like growth factor-1 soluble receptor

[23] = target: T14, rHuman Notch-1/Fc Chimera, CF (R&D Systems Cat#3647-TK) (human, UniProt P46531 19-526); experiment: as above
T14 construct: Bought reagent

[24] = target: T15, rHuman ErbB2/Fc Chimera, CF (R&D Systems Cat#1129-ER) (human, UniProt P04626 23-652); experiment: as above
T15 construct: Bought reagent; also called human epidermal growth factor 2 receptor

[25] = target: T16, rHuman CD44/Fc Chimera, CF (R&D Systems Cat#3660-CD) (human, UniProt P16070 21-220); experiment: as above
T16 construct: Bought reagent

[26] = target: T17, rHuman EGF R/Fc Chimera, CF (R&D Systems Cat#344-ER) (human, UniProt P00533 25-645); experiment: as above
T17 construct: Bought reagent; also called epidermal growth factor receptor

[27] = target: T18, Recombinant Human DLL4 (delta-like protein 4) (human, UniProt Q9NR61 27-524); experiment: 96-well plate ECL (MSD) assay, DLL4 immobilised, Fab at 10 nM
T18 construct: also called rHuman DLL4; Delta-like 4

[28] = target: T18, Recombinant Human DLL4 (delta-like …); experiment: ELISA, DLL4 coated on the plate, Fab at 100 nM, absorbance at 450 nm

Row | ECL signal/noise ratio [1] | ECL signal/noise ratio [2] | ECL signal/noise ratio [3] | ECL signal/noise ratio [4] | ECL signal/noise ratio [5] | ECL signal/noise ratio [6] | ECL signal/noise ratio [7] | ECL signal/noise ratio [8] | ECL signal/noise ratio [9] | ECL signal/noise ratio [10] | ECL signal/noise ratio [11] | ECL signal/noise ratio [12] | ECL signal/noise ratio [13] | ECL signal/noise ratio [14] | ECL signal/noise ratio [15] | ECL signal/noise ratio [16] | ECL signal/noise ratio [17] | ECL signal/noise ratio [18] | ECL signal [19] | ECL signal [20] | Binder | also measured
1 | 1.1 | 1.1 | 1.4 | 1.3 | 0.9 | 1.3 | 4.5 | 1.2 | 1.3 | 1.4 | 1.2 | 1.2 | 1.4 | 1 | 1.4 | 31.6 | 1 | 1.2 |  |  | Fab VH1-46_IGHD6-6*01_IGHJ1*01 S103A & L6_IGKJ1*01 (Fab, V domains shown, Fab made in E. coli; The heavy chain variable region was cloned into Plasmid A (CH1, His6 and Flag tags) and the kappa light chain variable region into Plasmid C (kappa CL)) VH: QVQLVQSGAEVKKPGASVKVSCKASGYTFTSYYMHWVRQAPGQGLEWMGIINPSGGSTSYAQKFQGRVTMTRDTSTSTVYMELSSLRSEDTAVYYCAREEYSASSAEYFQHWGQGTLVTVSS VL: not shown | 
2 | 1.2 | 1.5 | 1.4 | 1.4 | 1 | 1 | 27 | 1 | 1 | 1 | 1 | 0.8 | 1.1 | 1 | 0.8 | 88.3 | 0.8 | 0.6 |  |  | Fab VH1-46_IGHD6-6*01_IGHJ1*01 S104H & L6_IGKJ1*01 (Fab, V domains shown, Fab made in E. coli; The heavy chain variable region was cloned into Plasmid A (CH1, His6 and Flag tags) and the kappa light chain variable region into Plasmid C (kappa CL)) VH: QVQLVQSGAEVKKPGASVKVSCKASGYTFTSYYMHWVRQAPGQGLEWMGIINPSGGSTSYAQKFQGRVTMTRDTSTSTVYMELSSLRSEDTAVYYCAREEYSSHSAEYFQHWGQGTLVTVSS VL: not shown | 
3 |  |  |  |  |  |  |  |  |  |  |  |  |  |  |  |  |  |  | 186 | 283 | Fab VH1-46_IGHD6-6*01_IGHJ1*01 S102A/S103P/S104F (APF) & L6_IGKJ1*01 Y32V (Fab, V domains shown, Fab format as for the parent (CH1 with His6/Flag tags, kappa CL); also called APF / Y32V) VH: QVQLVQSGAEVKKPGASVKVSCKASGYTFTSYYMHWVRQAPGQGLEWMGIINPSGGSTSYAQKFQGRVTMTRDTSTSTVYMELSSLRSEDTAVYYCAREEYAPFSAEYFQHWGQGTLVTVSS VL: EIVLTQSPATLSLSPGERATLSCRASQSVSSVLAWYQQKPGQAPRLLIYDASNRATGIPARFSGSGSGTDFTLTISSLEPEDFAVYYCQQRSNWPPWTFGQGTKVEIKR | ECL signal [21]: 144; ECL signal [22]: 151; ECL signal [23]: 56; ECL signal [24]: 156; ECL signal [25]: 120; ECL signal [26]: 57
4 |  |  |  |  |  |  |  |  |  |  |  |  |  |  |  |  |  |  | 236 | 185 | Fab VH1-46_IGHD6-6*01_IGHJ1*01 S102A/S103P/S104F (APF) & L6_IGKJ1*01 R24G/Q27L (Fab, V domains shown, Double mutant that arose inadvertently in the PCR; Fab format as for the parent (CH1 with His6/Flag tags, kappa CL); also called APF / R24G/Q27L) VH: QVQLVQSGAEVKKPGASVKVSCKASGYTFTSYYMHWVRQAPGQGLEWMGIINPSGGSTSYAQKFQGRVTMTRDTSTSTVYMELSSLRSEDTAVYYCAREEYAPFSAEYFQHWGQGTLVTVSS VL: EIVLTQSPATLSLSPGERATLSCGASLSVSSYLAWYQQKPGQAPRLLIYDASNRATGIPARFSGSGSGTDFTLTISSLEPEDFAVYYCQQRSNWPPWTFGQGTKVEIKR | ECL signal [21]: 191; ECL signal [22]: 49; ECL signal [23]: 177; ECL signal [24]: 225; ECL signal [25]: 119; ECL signal [26]: 252
5 | 1.8 | 1 | 1.8 | 1.5 | 2 | 1.1 | 22.9 | 1.2 | 1.8 | 2.4 | 2 | 2.6 | 2.1 | 2.2 | 1.4 | 139 | 1.9 | 2.3 |  |  | Fab VH1-46_IGHD6-6*01_IGHJ1*01 S103P & L6_IGKJ1*01 (Fab, V domains shown, Fab made in E. coli; The heavy chain variable region was cloned into Plasmid A (CH1, His6 and Flag tags) and the kappa light chain variable region into Plasmid C (kappa CL)) VH: QVQLVQSGAEVKKPGASVKVSCKASGYTFTSYYMHWVRQAPGQGLEWMGIINPSGGSTSYAQKFQGRVTMTRDTSTSTVYMELSSLRSEDTAVYYCAREEYSPSSAEYFQHWGQGTLVTVSS VL: not shown | 
6 |  |  |  |  |  |  |  |  |  |  |  |  |  |  |  |  |  |  |  |  | Fab VH1-46_IGHD6-6*01_IGHJ1*01 S102A/S103P/S104F/H111F & L6_IGKJ1*01 S28N/S30D/S31H (Fab, V domains shown, Tested as a Fab expressed in E. coli; also called H:APFF & L:NDH; APFF-NDH) VH: QVQLVQSGAEVKKPGASVKVSCKASGYTFTSYYMHWVRQAPGQGLEWMGIINPSGGSTSYAQKFQGRVTMTRDTSTSTVYMELSSLRSEDTAVYYCAREEYAPFSAEYFQFWGQGTLVTVSS VL: EIVLTQSPATLSLSPGERATLSCRASQNVDHYLAWYQQKPGQAPRLLIYDASNRATGIPARFSGSGSGTDFTLTISSLEPEDFAVYYCQQRSNWPPWTFGQGTKVEIKR | ECL Signal [10 nM Fab] [27]: 49000; ELISA Signal [100 nM Fab] [28]: 0.08
